The values that follow come from publication PMC3823998, “Structural and Functional Characterization of the Redβ Recombinase from Bacteriophage λ” (PLoS ONE, 2013).

The target in the data set is T1, Redβ Y64A (Bacteriophage λ (Enterobacteria phage λ), UniProt P03698 1-261, Y64A).
T1 sequence: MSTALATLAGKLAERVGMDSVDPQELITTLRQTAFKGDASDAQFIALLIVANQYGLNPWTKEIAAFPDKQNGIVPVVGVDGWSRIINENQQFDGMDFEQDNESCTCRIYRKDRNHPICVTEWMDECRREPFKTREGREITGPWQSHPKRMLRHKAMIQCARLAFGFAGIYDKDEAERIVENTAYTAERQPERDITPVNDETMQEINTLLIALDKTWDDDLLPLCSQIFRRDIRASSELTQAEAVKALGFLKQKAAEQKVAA
Kind of data set: EMSA; glutaraldehyde-fixed; ssDNA EMSA: 10 nM DNA, 50 mM potassium phosphate pH 6.0, 5 mM EDTA, 5% glycerol, 0.1 mg/ml BSA, 37°C, 40 min, then 0.1% glutaraldehyde; second-strand EMSA: 5 nM each strand, 20 mM Tris-HCl pH 7.5, 5 mM MgCl2, 1 mM DTT, 0.1 mg/ml BSA, 37°C. The following applies: protein: recombinant; tags: His6 removed; N-terminal GSH left; label: 5' Cy3.

B1: 50-minus ssDNA (ssDNA)
DNA: TGCGGATGGCTTAGAGCTTAATTGCTGAATCTGGTGCTGTAGCTCAACAT
As for B1, the binding signal was 98 % of WT binding at 3 µM protein.
